± gives the uncertainty stated by the source.

This data set is described as follows: amyloid nucleation score (Sup35N fusion, yeast selection) (log enrichment); library NNK3; higher = more nucleation; inactive = no reads after selection. The procedure, abridged:
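On medium lacking adenine and uracil, psi-negative yeast expressing peptides of 20 random codons fused to Sup35N were grown 7 days at 30°C after a 24-hour induction with 100 μM copper sulfate. Illumina sequencing of input and output plasmid inserts gave the reads, and sequences under 100 input reads were excluded. The nucleation score is the DiMSum log enrichment of output over input reads, centred on the mode score of non-aggregating sequences.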
With KGSSC, the amyloid nucleation score entry was “inactive”.
Then HSVSLNYLGIR, with “inactive”; and PMQAS, with “inactive”; and PYVQRNVCCAPV, with “inactive”.
Then FFADGARVYFANHVSKAFWF, with 1.96 ± 0.083.
In the case of WYVFPCRDLVDMCCSGRCAV it was “inactive”; in that of MRFLWCNVCL, 2.07 ± 0.078; in that of RMMNKAADNVMNYNCVCCKS, “inactive”.
Turning to CVSDLCSW, the amyloid nucleation score result was “inactive”.
Then MCFNYCGVWASYLNRSVSFI, with “inactive”; and ILDDSSWNSLTANVVVWTYF, with -1.05 ± 1.3.
Take SLTLGCSDLGKGCREETYAG: the amyloid nucleation score entry is “inactive”.
As for TVASYVNCKRFVLWNYWLFS, the amyloid nucleation score entry is “inactive”.
Then FECGRFMGLVVLAVRSGNVM, with “inactive”.
Then TNKLIKFLDFHVRRVAVVGE, with “inactive”; and MGSYM, with “inactive”.
The substance CRCNVSLGILFKRGMSKRRI came in with an amyloid nucleation score of 1.01 ± 0.11.
Then DRISSNDMCGWESGVISIHD, with “inactive”; and YLFRVTLNVALILMLSSRCE, with “inactive”.
In the case of FWLLIIVF it was “inactive”.
In the case of TSIMSKGGGSYLSWNWHGWL it was “inactive”.
With YFSACTVKKHTSWCADVT, the amyloid nucleation score result is “inactive”.
As to RLFYTRIDSTCIWLVLYAEK, the amyloid nucleation score entry is “inactive”.
As to HQTRIMPGLLGKRAFIRVRL, the amyloid nucleation score entry is “inactive”.
In the case of GRGHGEGTRLASSTIVIMHV it was -0.395 ± 0.61; in that of GSILWGVNMRFLNITAGCDY, “inactive”; in that of CSFGRS, “inactive”.
In the case of AVDLV it was “inactive”; in that of KDELCH, 1.81 ± 0.11.
Then SVTSHDPMACHLLVCSV, with “inactive”; and MVKLCALSCSIALDPIQTFK, with 0.426 ± 0.19; and VLIDYYMMSTSN, with “inactive”.
On to GKKNYLF, for which the amyloid nucleation score entry was “inactive”.
Consider VYISFGFLILFLFSEFLPCV, for which the amyloid nucleation score entry was “inactive”.
Then VASCMTGWLILDETMSSFKL, with -0.746 ± 0.98; and SDLFVSVFM, with “inactive”.
In the case of GVRQVMVSSFRGNHNQKDTS it was “inactive”; in that of GYPVWYVDLFSAKVRMQ, “inactive”; in that of YSHNLWLA, “inactive”.
In the case of FFPMLIARMDALPRPVNLGY it was “inactive”; in that of GRSMR, “inactive”.
With CLFRQTFCMGP, the amyloid nucleation score entry was “inactive”.
In the case of KTACFLVNCLNYQRAERTLR it was 1.23 ± 0.18.
Then GYTNKLKWGHRITINAFVYR, with -0.267 ± 0.68.
In the case of CRYNVIYWGIDSCYHMWSWR it was “inactive”; in that of LNMGVTRLDLISLGWGSVSL, -0.41 ± 0.75; in that of YRRGYKITSLLSFYGNHRWP, “inactive”.
As for GGCLGICTAANLRSGNRITR, the amyloid nucleation score result was “inactive”.
Then FWLYYNFQFLDDC, with “inactive”.
In the case of FCRCKLFFAGCF it was 1.08 ± 0.13; in that of LVQIPYTDDVRLKGMINP, “inactive”; in that of YCCNGYPACG, “inactive”.
Then RVPCNETELCMFYRSGLLLL, with “inactive”.
In turn, VKPSLF came in with an amyloid nucleation score of -0.567 ± 1.
With FASIYNFHDRIVSLRDQGR, the amyloid nucleation score result is “inactive”.
Consider IFYCLSYLGTSVVEIHCLYA, for which the amyloid nucleation score result was “inactive”.
In the case of NPFLSCKNYGICSYVGTNVF it was 1.09 ± 0.096; in that of CKCVCNGAKDRFST, “inactive”; in that of SLAIMCCKIWPLLIMYILIT, “inactive”.
Turning to KLWKWNTGNSVVVLGLMSGV, the amyloid nucleation score result is “inactive”.
Regarding GYTIYGRVNPLVCPWVLVSE, the amyloid nucleation score result is “inactive”.
Then SFSDYEDMAQHLAPEAYNKC, with “inactive”; and LVTDGMRRSEICLMVYSN, with “inactive”; and SSTSCTHGYVGMFGFPSVVS, with “inactive”.
Then SRYSYVYTSESLYRASVSSV, with “inactive”; and KLKPMPNWSRLSRDWVLCCS, with “inactive”.
In the case of GVTLGQLR it was 1.42 ± 0.15; in that of KGLMVNRELMGSWSRPGCSY, “inactive”.
For KRCPWVRNKSVSYLTSKYKL, the amyloid nucleation score entry is “inactive”.
Then SIAIHWTLICGLYLSNSSRA, with “inactive”; and MVFEKGFSTNNRHGGHLDEQ, with “inactive”.
In the case of PLKIYIGNQLV it was “inactive”.
Then PIYDRFTSKIACLNMMVDLR, with 0.101 ± 0.29.
The substance TSFSYNLGTISDRCVWILAD gave an amyloid nucleation score of -0.116 ± 0.9.
Then NVQRNVNAE, with “inactive”; and NLHNVMRKFTQGFSGHKTKL, with “inactive”; and YRLISCLVFISGRFSN, with “inactive”.
Then VPGYAAMSPLLCYRGIPVQG, with “inactive”.
Then SYVFTR, with “inactive”; and EQIPMKSVEGEYWLTVIVGN, with “inactive”; and FSRKDTYFLMGIFKLNLRYL, with “inactive”.
Regarding QTISVYYFHVLWSEGCRMYA, the amyloid nucleation score result is “inactive”.
In the case of HSRRYILNVP it was 0.935 ± 0.085.
Substance SAQFRFKSSV yielded an amyloid nucleation score of 1.35 ± 0.089.
In the case of LSTCFTGAFRVSNREKSNVS it was 0.059 ± 0.43; in that of RLEFKESRMGLLVLGDN, “inactive”; in that of LQDKQCHVWDYASGIAYVVE, “inactive”.
Then KRVKSPNILEMVNYAQ, with -0.487 ± 0.9; and VLLPPGVE, with -0.23 ± 0.98; and FVQRWCYGGKCNGCVGSSGG, with “inactive”.
Then HDCCDLGFSVDV, with “inactive”; and VNYRN, with “inactive”.
Take IWIGFPFLSSSGGPMYPL: the amyloid nucleation score result is “inactive”.
Turning to RCLSDCYVRNECTF, the amyloid nucleation score entry was “inactive”.
In the case of GFKVVSSLDFSCG it was 0.55 ± 0.31; in that of TMRVVFRHKTVNRIEVKVYF, -0.234 ± 0.69.
For SNCFQYECMSWSWDYLHECW, the amyloid nucleation score result was “inactive”.
In the case of SHSNKSMRVNALSKWLY it was “inactive”; in that of LAYYRPRQEWVPCNSVGLK, “inactive”.
In the case of CSAFAYRSSWRFAWNTIFDY it was “inactive”.
Then LYLPGKIY, with “inactive”; and VSVCLVCAVIPRLLSMRCIV, with “inactive”.
As to HYLWCVYII, the amyloid nucleation score entry is “inactive”.
In the case of GMADKVDTCLWLMFY it was “inactive”; in that of SRLNFVCRGGSSAVFRRKAH, “inactive”; in that of DFGVGN, “inactive”.
In the case of EALGKSFLVKFKTIKYLRLA it was “inactive”; in that of YNECYWK, “inactive”.
Then CLSMSLAKLGVIYL, with 0.724 ± 0.21; and RLQNPTCAAPWCCIGKGVIR, with 0.538 ± 0.39.
As for QVDFQLCH, the amyloid nucleation score result was “inactive”.
In the case of HVSSKASLLPMYRY it was 0.237 ± 0.75; in that of YSHGTAKIPQAVVNDVIKSI, “inactive”; in that of FLVFGYASVGAIETWDKTAE, “inactive”.
Then NVNWIRFDFHFVFV, with 2 ± 0.071; and YVVSYPVGVRSNTHLLRIWR, with “inactive”.
Then CMPFMR, with “inactive”; and VYHTYVVLMGGHLPTSLGVT, with 1.8 ± 0.078.
Turning to SESMDGNFQKCLSAVCALIE, the amyloid nucleation score result is “inactive”.
With VHLSRWYVN, the amyloid nucleation score entry is “inactive”.
Then NDASVLRNSPELSESFRGKW, with “inactive”; and SGTGNGKIPMDRSVSDCVRE, with 0.035 ± 0.37; and WYFGCSALYQL, with 1.49 ± 0.099.
Then WPFMNYVNENCSWYSS, with 1.09 ± 0.14; and MGFASSLSWSL, with “inactive”; and KPASAGLVINAVGSGHSEMW, with “inactive”.
Then PDMSNIQTFWDSRVMGRTR, with “inactive”.
Turning to RGDSRFP, the amyloid nucleation score stood at 0.08 ± 0.88.
As for MSTLEMHYGPSFSCLYNMQD, the amyloid nucleation score came out at 1.89 ± 0.065.
Then KYRFLSKSRMRGSACHGKDQ, with “inactive”; and SSNVPFVWCIPLMIAGIVGH, with -0.348 ± 0.75; and LCVNCLPRSLIFDSSIWRVD, with 0.296 ± 0.87.
Then RCGHFLYEFL, with “inactive”.

These data come from the supplement of paper PMC12042874.
